One series relates to QH4 strain. Particulars: SA added to cell cultures at 0-1000 mg/L; QH4 cells.
Series [1] can be described thus: Screening SMOs in vivo (conversion of SA to catechol by whole cells). Format: cell-based. The settings on record: E. coli BW25113 carrying pZE12-luc expression vector, 2 mM SA, 37° C., catechol formation rate. How it is done: To evaluate the activity of enzymes converting SA to catechol, E. coli BW25113 was transformed with the expression vectors pZE-ppbenABCD, pZE-paantABC, pZE-pfantABC and pZE-NahG, separately. The resultant transformants were inoculated in 3 ml LB liquid medium containing 100 μg/ml of ampicillin and grown aerobically at 37° C. The overnight cultures were inoculated into 20 ml fresh LB medium and left to grow at 37° C. till OD600 reached 0.6 and then induced with 0.25 mM of IPTG at 37° C. for additional 3 h. Then the cells were harvested, and re-suspended in M9Y medium (OD600=2.1-2.7). SA was added into the cell suspension to a final concentration of 2 mM. The flasks were incubated with shaking at 37° C. for 10 min for the SMO encoded by nahG^opt and 1 h for ppBenABCD, paAntABC, and pfAntABC. Samples were taken by removing cell pellets and the product (catechol) concentrations were measured with HPLC. The in vivo activity was expressed as μM/min/OD.
Following the reconstitution and optimization of an SA biosynthetic pathway, our subsequent effort was focused on constructing the SA degradation pathway. SMO catalyzes the first enzymatic step of SA degradation, and thus it is of great importance to have an efficient SMO available for the pathway assembly. […] A putative SMO (encoded by nahG) was identified from the genome of P. putida DOT-T1E. […]

Series [2] can be described thus: In vitro SMO enzyme assay. The format is biochemical, P. putida DOT-T1E. The settings on record: purified His-tagged enzyme 0.97 nM. How it is done:
(A) Kinetic parameters of the SMO. The Km and Vmax values were estimated with OriginPro8 through non-linear regression of the Michaelis-Menten equation. The protein concentration [E] of the SMO in the reaction systems was 0.97 nM. The kcat value was calculated according to the formula kcat=Vmax/[E]. […] (B) Conversion of SA to MA using the wild type E. coli strain carrying pZE-NC. […] Error bars are defined as s.d.
To express and purify the enzyme, E. coli BL21 Star (DE3) was transformed with the expression plasmid pET-NahG. A fresh transformant was inoculated in 3 ml LB medium containing 100 μg/ml of ampicillin and grown aerobically at 37° C. Overnight cultures were inoculated into 50 ml fresh LB medium and left to grow at 37° C. till OD600 reached 0.6 and then induced at 30° C. with 0.5 mM IPTG for another 3 h. Cells were then harvested and lysed by French Press. The recombinant protein with an N-terminal multi-histidine tag was purified using His-Spin protein miniprep kit (ZYMO […]). The enzyme concentration was measured using BCA kit (Pierce Chemicals). The standard enzyme assay was performed by making an assay mixture containing 500 μM NADH, 10 μM FAD, 0.97 nM purified enzyme, and SA as the substrate. The final volume was adjusted to 1 ml with Kpi buffer (20 mM, pH=7.0). […] The reaction rates were calculated by measuring the formation of catechol via HPLC. […]

Usually Km stands for the concentration of substrate that gives half-maximal velocity. One may read the kcat as the number of substrate molecules converted per active site and unit of time at saturation.

Text for QH4 strain: All data points are reported as mean±s.d. from three independent experiments. […] All data points are reported as mean±s.d. from two independent experiments.

As for `O=C(O)c1ccccc1O` [SA, salicylic acid], the “SA concentration that completely inhibited the cell proliferation” value in the series on QH4 strain came out at 1000 mg/L.

B1: nahG^opt: salicylate 1-monoxygenase (SMO) from P. putida DOT-T1E, encoded by codon-optimized gene nahG^opt (protein, listed as Escherichia coli)
chain: MQNSTSALNVSIIGGGIAGVALALDLCRHAHLNVQLFEAAPAFGEVGAGVSFGANAVRAIAGLGIAEPYGKIADSNPAPWQDIWFEWRNGRDAKYLGCSVAEGVGQSSVHRADFLDALASQLPDGIAQFGKRAQRVEQDGEQVRVTFTDGSEHRCDLLIGADGIKSSIRDHVLQGLNQPLASPRFSGTCAYRGLIDSQQLREAYRARGVDEHLIDVPQMYLGLDGHILTFPVKQGRLINVVAFISDRSQPNPVWPSDTPWVRNATQAEMLAAFEGWDDAAQVLLECIPTPSLWALHDLAELPGYVHGRVGLIGDAAHAMLPHQGAGAGQGLEDAWLLARLLEDPKVLDKRPQAVLDAYDAVRRPRACRVQRTSFEAGELYEFRDPAVLADEERLGKVLAERFDWLWNHDMQEDLLQARELLGLRAQAA
Regarding B1, the results for the In vivo activity in series [1] and in series [1] (listed as SMO encoded by nahG^opt) were 54.78 ± 1.65 μM/min/OD and 54.78 μM/min/OD, respectively. For the same molecule, the Km in series [2] (SA 0 to 100 μM, 500 μM NADH, 10 μM FAD, pH 7.0, 37° C.) worked out at 4.37 µM. In addition, in series [2] (substrate SA, kcat=Vmax/[E]), the catalytic constant (kcat) was determined as 96.56 s⁻¹.
